{"source": "patent US20230167426", "proteins": {"B1": {"name": "6×His-tagged NmeCas9 (Neisseria meningitidis Cas9) (protein)", "chain": "MAAFKPNSINYILGLDIGIASVGWAMVEIDEEENPIRLIDLGVRVFERAEVPKTGDSLAMARRLARSVRRLTRRRAHRLLRTRRLLKREGVLQAANFDENGLIKSLPNTPWQLRAAALDRKLTPLEWSAVLLHLIKHRGYLSQRKNEGETADKELGALLKGVAGNAHALQTGDFRTPAELALNKFEKESGHIRNQRSDYSHTFSRKDLQAELILLFEKQKEFGNPHVSGGLKEGIETLLMTQRPALSGDAVQKMLGHCTFEPAEPKAAKNTYTAERFIWLTKLNNLRILEQGSERPLTDTERATLMDEPYRKSKLTYAQARKLLGLEDTAFFKGLRYGKDNAEASTLMEMKAYHAISRALEKEGLKDKKSPLNLSPELQDEIGTAFSLFKTDEDITGRLKDRIQPEILEALLKHISFDKFVQISLKALRRIVPLMEQGKRYDEACAEIYGDHYGKKNTEEKIYLPPIPADEIRNPVVLRALSQARKVINGVVRRYGSPARIHIETAREVGKSFKDRKEIEKRQEENRKDREKAAAKFREYFPNFVGEPKSKDILKLRLYEQQHGKCLYSGKEINLGRLNEKGYVEIDHALPFSRTWDDSFNNKVLVLGSENQNKGNQTPYEYFNGKDNSREWQEFKARVETSRFPRSKKQRILLQKFDEDGFKERNLNDTRYVNRFLCQFVADRMRLTGKGKKRVFASNGQITNLLRGFWGLRKVRAENDRHHALDAVVVACSTVAMQQKITRFVRYKEMNAFDGKTIDKETGEVLHQKTHFPQPWEFFAQEVMIRVFGKPDGKPEFEEADTLEKLRTLLAEKLSSRPEAVHEYVTPLFVSRAPNRKMSGQGHMETVKSAKRLDEGVSVLRVPLTQLKLKDLEKMVNREREPKLYEALKARLEAHKDDPAKAFAEPFYKYDKAGNRTQQVKAVRVEQVQKTGVWVRNHNGIADNATMVRVDVFEKGDKYYLVPIYSWQVAKGILPDRAVVQGKDEEDWQLIDDSFNFKFSLHPNDLVEVITKKARMFGYFASCHRGTGNINIRIHDLDHKIGKNGILEGIGVKTALSFQKYQIDELGKEIRPCRLKKRPPVR"}}, "target": "T1, AcrE2 (type I-E anti-CRISPR from Pseudomonas phage JBD88a)", "T1 chain": "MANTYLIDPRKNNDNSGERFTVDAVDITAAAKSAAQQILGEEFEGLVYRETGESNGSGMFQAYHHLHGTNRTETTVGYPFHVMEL", "data": [{"protein": "B1", "values": [{"measurement": "in vitro DNA cleavage by NmeCas9", "result": "Cleavage was unaffected by prior incubation of NmeCas9 with increasing amounts of the control, type I-specific anti-CRISPR, AcrE2"}]}]}
